This is an account of results in the nanobody polyreactivity screen of Harvey et al. (2022).

The data set can be described thus: yeast display, Sf9 membrane polyspecificity reagent, FACS + sequencing; frameworks hold sequencing errors. The procedure, abridged:
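Polyreactivity labels are assigned by the sorting gate from which each nanobody was recovered. The gates were low and high (top ~1%), set on anti-HA fluorescence for expression and streptavidin fluorescence for reagent binding. Before sorting, galactose-induced (36–48 hours) yeast display cells were stained for 1 hour at 4 °C with 10% biotinylated, detergent-solubilized Sf9 membrane reagent.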
Consider “QVQLVESGGGLVQAGGSLRLSCAASGSIFPYYTMGWYRQAPGKERELVAAISGSGGSTYYADSVKGRFTISRDNAKNTVYLQMNSLKPEDTAVYYCAAYRRTWFDYWGQGTQVNVSS”, for which the “polyreactivity (PSR sort gate)” value is reported as “high polyreactivity”. In the case of “QVQLVESGGGLVQAGGSLRLSCAASGSIFPYYTMGWYRQAPGKERELVATITTGGSTNYADSVKGRFTISRDNAENTVYLQMNCLKPEDIAVYYCNKDGVVEVRFTGRQEYDYWGQGTQVTVSS”, the “polyreactivity (PSR sort gate)” value is recorded as “low polyreactivity”. In the case of “QVQLVESGGGLVQAGGSLRLSCAASGSIFQGNAMGWYTQAPGKERELVAAITYSGGSTYYADSVKGRFTISRDNAKNTVYLQMNSLKAEDTAVYYCNTTLRDSRQYVDRAQYNRYDYWGQGTQVTVSS” it was “low polyreactivity”. Then “QVQLVESGGGLVQAGGSLRLSCAASGSIFQHNDMGWYRQAPGKERELVAAMSRSGGSTYYADSVKGRFTISRDNAKNTVYLQRNSLKPEDTAVYYCNAGRRTGRYAYWGQGTQVTVSS”, with “high polyreactivity”; and “QVQLVESGGGLVQAGGSLRLSCAASGSIFQPNGMGWYRQAPGQEREFVARIDRSGGSTYYADSVKGRFTISRDNAKNTVYLQMNSLKPEDTAVYYCHAAGEVIGYDYWGQGTQVTVSS”, with “low polyreactivity”; and “QVQLVESGGGLVQAGGSLRLSCAASGSIFQPYAMGWYRQAPGKERELVAAISSSGGSTTYADSVKGRFTISRDNAKNTVYLQMNSLKPEDTAVYYCAADVEYKVFPGDYWGQGTQVTVSS”, with “low polyreactivity”. Then “QVQLVESGGGLVQAGGSLRLSCAASGSIFQRTAMGWYRQAPGNERELVASINSGGSTNYADSVKGRFTISRDNAKNTVYLQMNSLKPEDTAVYYCAAVRPWWRNKPQWPRYDYWGLGTQVTVSS”, with “low polyreactivity”; and “QVQLVESGGGLVQAGGSLRLSCAASGSIFQRYTMGWYRQAPGKERELVAAITSRSGRTYYADSVKGRFTISRDNAKNTVYLQMNSLKPEDTAVYYCATVPYDQTRGYKYDYWGQGTQVTVSS”, with “high polyreactivity”. Take “QVQLVESGGGLVQAGGSLRLSCAASGSIFQSYAMGWYRQAPGKERELVATITISDGSTYYADSVKGRFTISRDNAKNTVYLQMNSLKPEDTAVYYCAATDYISYGAPLRRGLNYDYWGQGTQVTVSS”: the “polyreactivity (PSR sort gate)” value was “low polyreactivity”.

“QVQLVESGGGLVQAGGSLRLSCAASGSIFQSYDMGWYRQAPGKERELVAAIRSGDSTYYADSVKGRFTISRDNAKNTVYLQMNSLKPEDTAVYYCNKDEATFLSKDGYWGQGTQVTVSS”: the “polyreactivity (PSR sort gate)” value is on record as “low polyreactivity”. “QVQLVESGGGLVQAGGSLRLSCAASGSIFQWNAMGWYRQAPGKERELVAAISSGTSTNYADSVKGRFTISRDNAKNTVYLQMNSLKPEDTAVYYCAAEGRGWAAFEVGYWGQGTLVTVSS”: the “polyreactivity (PSR sort gate)” value is “low polyreactivity”.

Regarding “QVQLVESGGGLVQAGGSLRLSCAASGSIFQWNAMGWYRQAPGKERELVAAISTRGGRTYYADSVKGRFTISRDNAKNTVYLQMNSLKPEDTAVYYCAKQYGSYGRYYKYYYWGQGTQVTVSS”, the “polyreactivity (PSR sort gate)” value was “high polyreactivity”.

For the sequence “QVQLVESGGGLVQAGGSLRLSCAASGSIFQWYAMGWYRQAPGKERELVAAINWSSGSTYYADSVKGRFTISRDIAKNTVYLQMNSLKPEETAVYYCAARIGYGTSYLRRIYYWGQGTQVTVSS”, the “polyreactivity (PSR sort gate)” value is on record as “high polyreactivity”. “QVQLVESGGGLVQAGGSLRLSCAASGSIFQYNAMGWSRQAPGKERELVAAIRTNYADSVKGRFTISRDNAKNTVYLQMNSLKPEDTAVYYCAAESSQTPTSAFDYWGQGTQVTVSS”: the “polyreactivity (PSR sort gate)” value was “low polyreactivity”. In the case of “QVQLVESGGGLVQAGGSLRLSCAASGSIFQYNAMGWYRQAPGKERELVAVISRSGSRTYYADSVKGRFTISRDNAKNTVYLQMNSLKPEDTAVYYCAAPFTSIGARDYYYWGQGTQVTVSS” it was “high polyreactivity”; in that of “QVQLVESGGGLVQAGGSLRLSCAASGSIFQYYGMGWYRPAPGKERELVAAITWNGGSTYADSVKGRFTISRDNAKNTVYLQMNSLKPEDTAVYYCAADLLVRWWLDYDYWGQGTQVTVSS”, “low polyreactivity”.

“QVQLVESGGGLVQAGGSLRLSCAASGSIFQYYGMVWYRQAPGKERELVASISRSGGSTYYADSVKGRFTISRDNAKNTVYLQMNSLKPEDTAVYYCNAKEPIRRTHLTSTYRDGYWGQGTQVTVSS”: the “polyreactivity (PSR sort gate)” value is reported as “low polyreactivity”. In the case of “QVQLVESGGGLVQAGGSLRLSCAASGSIFQYYLIGWYRKAPGKERELVAAIRRSGTTYYADSVKGRFTISRDNAKNTVYLQMNSLKPEDTAVYYCNKVRGQEQSNYDYWGQGTQVTVSS”, the “polyreactivity (PSR sort gate)” value was “low polyreactivity”.

“QVQLVESGGGLVQAGGSLRLSCAASGSIFQYYVMGWYRQAPGKERELDAAIRRSGTTYYADSVKGRFTISRDNAKNTVYLQMNSLKPEDTAVYYCNADSIYYYYLIEYEYWGQGSQVTVSS”: the “polyreactivity (PSR sort gate)” value is given as “low polyreactivity”. Then “QVQLVESGGGLVQAGGSLRLSCAASGSIFQYYVMGWYRQAPGKERELVAAISQSGGRTYYADSVKGRFTISRDNAKNTVYLQMNSLKPEDTAVYYCAADSRNAEYDYWGQGTQVTVSS”, with “high polyreactivity”; and “QVQLVESGGGLVQAGGSLRLSCAASGSIFRAYAMGWYRQAPGKERELVAAINWTDGSTYYADSVKGRFTISRDKAKNTVYLQMNSLKPEDTAVYYCAKDSIARHNYWGQGTQVTVSS”, with “low polyreactivity”; and “QVQLVESGGGLVQAGGSLRLSCAASGSIFRAYAMGWYRQAPGKERELVAGITKSGGSTYYADSVKGRFTISRDNAKNTVYLQMNSLKAEDTAVYYCAAYRSRTYGYWGQGTQVTVSS”, with “high polyreactivity”. “QVQLVESGGGLVQAGGSLRLSCAASGSIFRAYVMGWYRQAPGKERELVAAISRGGSTNYADSVKGRFTISRDNAKNTVYLQMNSLKPEDSAVYYCAADWYFYSMYDEVEYWGQGTQVTVSS”: the “polyreactivity (PSR sort gate)” value is listed as “low polyreactivity”. Regarding “QVQLVESGGGLVQAGGSLRLSCAASGSIFRDNAMGWYLQAPGKERELVASISRRGGSTYYADSVKGRFTISRDNAKNTVYLQMNSLKPEDTAVYYCAARAVGGTVPTRYDYWGQGTQVTVSS”, the “polyreactivity (PSR sort gate)” value is given as “high polyreactivity”.

As for “QVQLVESGGGLVQAGGSLRLSCAASGSIFRDYAMGWYRPAPGKERELVAAISSGVSTNYADSVKGRFSISRDNAKNSVYLKMNSLIPEDTAVYYCNTDKYSESFRSYEYWGQGTQVTVSS”, the “polyreactivity (PSR sort gate)” value was “low polyreactivity”. Consider “QVQLVESGGGLVQAGGSLRLSCAASGSIFRFKAMGWYRQAPGKERELVAAISWSGGRTYYADSVKGRFTISRDNAKNTVYLQMNSLKPEDTAVYYCAARRSGLKVSPNFGYWGQGTQVTVSS”, for which the “polyreactivity (PSR sort gate)” value was “high polyreactivity”. Then “QVQLVESGGGLVQAGGSLRLSCAASGSIFRFNTMGWYRQAPGKERELVAAITSGDGTYYADSVKGRFTISRDNAKNTVYLQMNSLKPEDTAVYYCAATRTYQLYRWAPRYYYWGQGTQVTVSS”, with “high polyreactivity”; and “QVQLVESGGGLVQAGGSLRLSCAASGSIFRGNALGWYRQAPGKERELFAAISKSGGSTYYADSVKGRFTISRDNAKNTVDLEMNSLKPEDTAVYYCAARTTYLYGMYYWGQGTQVTVSS”, with “low polyreactivity”.

For the sequence “QVQLVESGGGLVQAGGSLRLSCAASGSIFRGNAMGWYRQAPGKERELVAAISSRGGSTYYADSVKGRFTISRDNAKNTVYLQMNSLKPEDTAVYYCGAVRYKYWGVQRSYSWGQGTKVTVSS”, the “polyreactivity (PSR sort gate)” value is given as “high polyreactivity”. Then “QVQLVESGGGLVQAGGSLRLSCAASGSIFRGNAMGWYRQAPGKERELVASISKGGGSTDYADSVKGRFIISRDNAKNTVYLQMNSLKPEDNAVYYCNKDYDRPDYYYWGQGTQVTVSS”, with “low polyreactivity”.

On to “QVQLVESGGGLVQAGGSLRLSCAASGSIFRGNAMGWYRQAPVKERELVAGINRAGSTKYADSVKGRFTISRDNAKNTVYLQMNSLKPEDTAVYYCAAVRYERGLWSDYWGQGTQVTVSS”, for which the “polyreactivity (PSR sort gate)” value was “high polyreactivity”. With “QVQLVESGGGLVQAGGSLRLSCAASGSIFRGYAMGWYRQAPEKERELVAAMSRRGGSTYYADSVKGRFTISRDNAKNTVYLQMNSLKPEDTAVYYCAADWLSWFHGYGMYYWGQGTQVTVSS”, the “polyreactivity (PSR sort gate)” value is reported as “low polyreactivity”. For “QVQLVESGGGLVQAGGSLRLSCAASGSIFRGYAMGWYRQAPGKERELVAAINSSGGRTYYADSVKGRFTISRDNAKKTVYLQMNSLKPEDTAVYYCNARSKYPSYFSSMGYWGQGTQVTVSS”, the “polyreactivity (PSR sort gate)” value is on record as “high polyreactivity”. Then “QVQLVESGGGLVQAGGSLRLSCAASGSIFRGYAMGWYRQAPGKERELVATIDSSAGSTYYADSVKGRFTISRDNAKNTVYLQMNSLIPEDTAVYYCATDPYGYYYSGFDNWGQGTQVTVSS”, with “low polyreactivity”; and “QVQLVESGGGLVQAGGSLRLSCAASGSIFRGYTMGWYRQAPGKERELVAAISRSGGSTYYADSVKGRFTISRDNAKNTVYLQMNSLKPEDTAVYYCNVVYFVTTSPGYDYWGQGTQVTVSS”, with “high polyreactivity”; and “QVQLVESGGGLVQAGGSLRLSCAASGSIFRGYTMGWYRQAPGKERELVAAISTRGGSTYYADSVKGRFTISRDNAKNTVYLQMNSLKPEDTAVYYCNARSRGRASGYDYWGQGTQVTVSS”, with “high polyreactivity”. Then “QVQLVESGGGLVQAGGSLRLSCAASGSIFRINGMGCYRQAPGKERELVADITGGGSTYYADSVKGRFTISRDNAKNTVYLHMNSLKPEDTAVYYCAKDYYRSYGREDYWGQGTQVTVSS”, with “low polyreactivity”. Then “QVQLVESGGGLVQAGGSLRLSCAASGSIFRINVMGWYRQAPGKERELVAAISYSGGRTYYADSVKGRFTISRDNAKKTVYLQMNSLKPEDTAVYYCAATRSNFIYDYWGQGTQVTVSS”, with “high polyreactivity”; and “QVQLVESGGGLVQAGGSLRLSCAASGSIFRIYAMGWYRQAPGKERELVAAISFSTGSRTYYADSVKGRFTISRDNAKNTVYLQMNSLKPEDTAVYYCAAEYHPRVLYPNWYDYWGQGTQVTVSS”, with “low polyreactivity”; and “QVQLVESGGGLVQAGGSLRLSCAASGSIFRIYAMGWYRQAPGQESELVAAINAGGGRTYYADSVKGRFTISRDNAKNTVYLQMNSLKPEDTAVYYCAARHTEYRQESLYYWGQGTQVTVSS”, with “low polyreactivity”. Consider “QVQLVESGGGLVQAGGSLRLSCAASGSIFRLNAMGWYRQARGKERELVARIDSSGSTNYTDSVKGRFTISRDNAKNTVYLQMNSLKPEDTAVYYCAAGLVLIVGMDSWGQGTQVTVSS”, for which the “polyreactivity (PSR sort gate)” value was “low polyreactivity”.
